Measurements from patent US20100159468A1.

Target: Arf1-V5 (human) (UniProt P84077)
Assay: cell-based or functional assay

Arf1-V5 (human), sequence (P84077 2-181): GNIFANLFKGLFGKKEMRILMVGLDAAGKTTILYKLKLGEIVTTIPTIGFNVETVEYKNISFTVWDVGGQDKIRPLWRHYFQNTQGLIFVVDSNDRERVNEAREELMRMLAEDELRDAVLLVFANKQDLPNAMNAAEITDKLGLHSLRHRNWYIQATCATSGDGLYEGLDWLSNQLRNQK

GBF1-M832L-HA (hamster GBF1 with M830L, M832L relative to human GBF1, HA-tagged) (from UniProt Q9R1D7 1-1856)
Arf1-GTP level (GST-GGA3 pulldown, Western blot band intensity) in BFA-treated Vero cells expressing GBF1-M832L: 45 % of control
Arf1-GTP level (GST-GGA3 pulldown, Western blot band intensity) in GCA-treated Vero cells expressing GBF1-M832L: 86 % of control
